Measured values published in PMC9108986, “Bioinformatic identification of previously unrecognized amyloidogenic proteins” (The Journal of Biological Chemistry, 2022).
Substitutions are numbered along the chain they refer to. Names and notes keep the numbering of the source.

B1: mCherry-fused low-complexity domain of TFG, residues 237-327, G269V (domain or fragment, human, UniProt Q92734 237-327, looked up)
chain: GQIEGQMYQQYQQQAGYGAQQPQAPPQQPQQYVIQYSASYSQQTGPQQPQQFQGYGQQPTSQAPAPAFSGQPQQLPAQPPQQYQASNYPAQ
notes: TRK-fused gene protein (TFG), human, low-complexity domain, residues 237-327, with the documented pathogenic mutation G269V (Charcot-Marie-Tooth disease type 2); also called TFG (237-327) G269V; mutant construct; source: E. coli BL21(DE3) Gold, purified (nickel-nitrilotriacetic acid, size-exclusion chromatography), dialyzed into PBS
B2: mCherry-fused low-complexity domain of TFG, residues 237-327, P285L (domain or fragment, human, UniProt Q92734 237-327, looked up)
chain: B1 chain with V33G, P49L
notes: also called TFG (237-327) P285L; mutant construct; source: E. coli BL21(DE3) Gold, purified (nickel-nitrilotriacetic acid, size-exclusion chromatography), dialyzed into PBS

Molecular target: the molecule itself
Test: amyloid fibre formation (thioflavin T fluorescence + electron microscopy + X-ray fibre diffraction); self-association into fibres; 50 uM protein in 1x PBS with 40 uM ThT, 37 °C, 700 rpm double orbital shaking with a PTFE bead, ~138 h; end-point samples imaged by negative-stain TEM; fibres diffracted (rings at 4.7 and 10 Å)

Row | Protein | binding result
1 | B1 | binds
2 | B2 | binds
